Among the data in patent US20260207704A1, “STAPLED PEPTIDES AND METHODS THEREOF” (priority 2022, published 2026) are IC50 values, retold here.

B1: I-90 (peptide)
peptide: Ac-[PL3]D[tBuAla][B5]N[Phe(3-COOH)]QAFK[PyrS2″][3Thi][BztA][GlnR]A-NH2
modifications: staple 1-4 (inferred); bridge 10-14; not fully specified (residue 10, bridges); printed as Ac-PL3-Asp-Npg-B5-Asn-3COOHF-Gln-Ala-Phe-Lys*3-PyrS2-3Thi-BztA-GlnR*3-Ala-NH2; reading uncertain; also: Lys10 and GlnR14 marked *3
B2: I-110 (peptide)
peptide: Ac-[PL3]D[tBuAla][B5]D[Phe(3-COOH)][Cha]AFK[PyrS2(4)][2F3MeF][Bta][GlnR]L-NH2
modifications: staple 1-4; bridge 10-14; reading uncertain; also: PyrS2 tied into a staple, partner not placed, printed as Ac-PL3-Asp-Npg-B5-Asp-3COOHF-Cha-Ala-Phe-Lys*3-PyrS2-2F3MeF-BztA-GlnR*3-Leu-NH2
B3: I-95 (peptide)
peptide: Ac-[αAllylPro]D[tBuAla][B5(4)]D[Phe(3-COOH)][GlnR]AFL[PyrS2″][2F3MeF(3)][BztA][GlnR](4mampiperidine)A-NH2
modifications: staple 1-4 (inferred); not fully specified (bridges); printed as Ac-PL3-Asp-Npg-B5-Asp-3COOHF-GlnR-Ala-Phe-Leu-PyrS2-2F3MeF-BztA-[4mampiperidine]GlnR-Ala-NH2; reading uncertain
B4: I-109 (peptide)
peptide: Ac-[PL3]D[tBuAla][B5]D[Phe(3-COOH)][tBuAla]AFK[PyrS2(4)][2F3MeF][Bta][GlnR]L-NH2
modifications: staple 1-4; bridge 10-14; reading uncertain; also: PyrS2 tied into a staple, partner not placed, printed as Ac-PL3-Asp-Npg-B5-Asp-3COOHF-Npg-Ala-Phe-Lys*3-PyrS2-2F3MeF-BztA-GlnR*3-Leu-NH2
B5: I-50 (peptide)
peptide: Ac-[αAllylPro]D[tBuAla][B5(4)]D[Phe(3-COOH)]K(isophthalate)AFL[PyrS2(6)][Phe(2-Cl)][Bta]K-NH2
modifications: not fully specified (residue 6, bridges); printed as Ac-PL3-Asp-Npg-B5-Asp-3COOHF-[isophthalate]-Lys-Ala-Phe-Leu-PyrS2-2ClF-BztA-Lys-NH2; also: isophthalate on Lys7 side chain is a staple, partner not given here
B6: I-114 (peptide)
peptide: Ac-[PL3]N[tBuAla][B5]D[TfeGA]AAFK[PyrS2(4)][2F3MeF][Bta][GlnR]A-NH2
modifications: staple 1-4; bridge 10-14; reading uncertain; also: PyrS2 tied into a staple, partner not placed
B7: I-49 (peptide)
peptide: Ac-[αAllylPro]D[tBuAla][B5(4)]D[Phe(3-COOH)]KAFL[PyrS2(6)][3Thi][Bta]K-NH2
modifications: not fully specified (residues 6, 7, bridges); printed as Ac-PL3-Asp-Npg-B5-Asp-3COOHF-[Biphen33COOH]-Lys-Ala-Phe-Leu-PyrS2-3Thi-BztA-Lys-NH2
B8: I-111 (peptide)
peptide: Ac-[PL3]D[tBuAla][B5]D[Phe(3-COOH)][Cha]AFK[PyrS2(4)][2F3MeF][Bta][GlnR]L-NH2
modifications: staple 1-4; bridge 10-14; reading uncertain; also: PyrS2 tied into a staple, partner not placed, printed as Ac-PL3-Asp-Npg-B5-Asp-3COOHF-Cha-Ala-Phe-Lys*3-PyrS2-2F3MeF-BztA-GlnR*3-Leu-NH2
B9: I-53 (peptide)
peptide: Ac-[αAllylPro]D[tBuAla][B5(3)]D[Phe(3-COOH)]K(diphenate)AFL[PyrS2(3)][Phe(2-Cl)][Bta]K-NH2
modifications: not fully specified (residue 6, bridges); printed as Ac-PL3-Asp-Npg-B5-Asp-3COOHF-[diphenate]Lys-Ala-Phe-Leu-PyrS2-2ClF-BztA-Lys-NH2

*1 amine or outer side, *2 acyl side, *3 side chain or, on linkers, in order; H or OH if unused. Bridges are numbered along the chain shown (N, C = ends). Primed or numbered codes have the meaning given here. [ ]: non-standard residue; d: D form. PyrS2(6) = (S)-3-amino-1-((pent-4-en-1-yloxy)carbonyl)pyrrolidine-3-carboxylic acid, stapled with another olefin-containing amino acid residue through the olefin group, O=C(OCCCC=[*:3])N1CC[C@@](N[*:1])(C(=O)[*:2])C1; B5(4) = 2-amino-2-(pent-4-en-1-yl)hept-6-enoic acid, stapled through each of its two olefin groups with other olefin-containing amino acid residues, O=C(C(CCCC=[*:3])(CCCC=[*:4])N[*:1])[*:2]; PyrS2″ = (S)-3-amino-1-((pent-4-en-1-yloxy)carbonyl)pyrrolidine-3-carboxylic acid (olefin stapling residue), C=CCCCOC(=O)N1CC[C@@](N[*:1])(C(=O)[*:2])C1; PyrS2(3) = (S)-3-amino-1-((pent-4-en-1-yloxy)carbonyl)pyrrolidine-3-carboxylic acid, olefin residue, C=CCCCOC(=O)N1CC[C@@](N[*:1])(C(=O)[*:2])C1; B5(3) = 2-amino-2-(pent-4-en-1-yl)hept-6-enoic acid, two olefin arms, C=CCCCC(CCCC=C)(N[*:1])C(=O)[*:2]; 2F3MeF(3) = aromatic amino acid residue, Cc1cccc(C[C@H](N[*:1])C(=O)[*:2])c1F; Phe(3-COOH) = N[C@@H](Cc1cccc(C(=O)O)c1)C(=O)O; 2F3MeF = Cc1cccc(C[C@H](N[*:1])C(=O)[*:2])c1F; Phe(2-Cl) = N[C@@H](Cc1ccccc1Cl)C(=O)O; Bta = N[C@@H](Cc1csc2ccccc12)C(=O)O; αAllylPro = C=CC[C@@]1(C(=O)O)CCCN1; BztA = aromatic amino acid residue; 4mampiperidine = not defined here; tBuAla = CC(C)(C)C[C@H](N)C(=O)O; 3Thi = N[C@@H](Cc1ccsc1)C(=O)O; Cha = N[C@@H](CC1CCCCC1)C(=O)O; PyrS2(4) = not defined here; TfeGA = not defined here; GlnR = not defined here; PL3 = not defined here; B5 = not defined here Where only a bound is given, the exact number is not on record here.

beta-catenin (human), sequence (B6V8E6 146-665 limits assumed): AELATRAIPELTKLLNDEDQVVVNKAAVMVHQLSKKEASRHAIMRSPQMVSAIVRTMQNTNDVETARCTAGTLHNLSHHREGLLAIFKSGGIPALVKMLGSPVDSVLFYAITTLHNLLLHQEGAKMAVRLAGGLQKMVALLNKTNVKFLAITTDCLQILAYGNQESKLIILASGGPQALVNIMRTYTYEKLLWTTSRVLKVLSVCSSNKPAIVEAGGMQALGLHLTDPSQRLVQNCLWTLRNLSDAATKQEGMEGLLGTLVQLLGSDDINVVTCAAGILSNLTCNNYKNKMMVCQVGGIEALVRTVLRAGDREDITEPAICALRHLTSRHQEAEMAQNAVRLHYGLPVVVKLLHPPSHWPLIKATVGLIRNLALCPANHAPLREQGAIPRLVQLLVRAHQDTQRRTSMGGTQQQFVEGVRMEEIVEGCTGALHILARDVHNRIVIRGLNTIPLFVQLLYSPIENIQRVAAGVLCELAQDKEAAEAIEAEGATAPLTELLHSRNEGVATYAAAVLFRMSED

The first assay concerns the target beta-catenin (human). The experiment in a line: fluorescence polarization; bin >50 nM.
Conditions: not given
Background: Polarisation of emitted light reports the rotation of a fluorescent probe.
B1: the IC50 (commonly the concentration that gives 50% inhibition) was < 200 nM.
On the same count and under the same terms, in the case of B2 it was < 200 nM.
For B3, the IC50 was < 200 nM.
Still for that read-out and setting: in the case of B4 it was < 200 nM; in that of B5, < 200 nM; in that of B6, < 200 nM.
As to B7, the IC50 is < 200 nM.
Same read-out and setting: in the case of B8 it was < 200 nM; in that of B9, < 200 nM.

In another assay the test system is DLD1 reporter. The experiment in a line: reporter assay (DLD1 reporter assay). The following applies: read-out: DLD1 4% Abs IC50; DLD1 4%. It counts as cell-based. An excerpt: Various technologies can be utilized for characterizing and/or assessing provided technologies (e.g., agents (e.g., various peptides), compositions, methods, etc.) in accordance with the present disclosure. As described herein, in some embodiments, a useful technology is or comprises fluorescence polarization. In some embodiments, a useful technology assesses LogP or LogD. In some embodiments, a useful technology is or comprises a CHI LogD assay. In some embodiments, a useful technology assesses solubility. In some embodiments, a useful technology is or comprises NanoBRET. In some embodiments, a useful technology is or comprises a reporter assay (e.g., DLD1 reporter assay). In some embodiments, a useful technology is or comprises alphascreen. Certain useful protocols are described in the Examples. Those skilled in the art appreciate that suitable adjustments may be made to such protocols, e.g., according to specific conditions, agents, purposes, etc.
Various technologies can be utilized to assess technologies of the present disclosure. For example, in some embodiments, solubility, LogD, interactions with targets, etc. of various agents such as stapled peptides were assessed using technologies described in WO 2022/261257 (e.g., those in its Examples). In some embodiments, solubility, shake flask LogD, and binding to beta-catenin were assessed. In some embodiments, an assay for assessing interactions, e.g., with beta-catenin, was fluorescence polarization as described in WO 2022/261257. In some embodiments, an assay was Nano-BRET target engagement assay that assessed beta-catenin/TCF4 engagement as described in WO 2022/261257. In some embodiments, an assay was a reporter assay as reported in Example 4 of WO 2022/261257. In some embodiments, an assay was a COLO320DM proliferation assay as reported in Example 4 of WO 2022/261257.
For orientation: Reporter assays use an easily measured gene product as a stand-in for the process of interest.
As for `CC(=O)N1CCC[C@]12CC=CCCCC1(CCCC=CCCCOC(=O)N3CC[C@@]4(C3)NC(=O)[C@H](CCCCNC(=O)CC[C@@H](C(=O)N[C@@H](C)C(N)=O)NC(=O)[C@H](Cc3csc5ccccc35)NC(=O)[C@H](Cc3ccccc3C(F)(F)F)NC4=O)NC(=O)[C@H](Cc3ccccc3)NC(=O)[C@H](C)NC(=O)C(C)(C)NC(=O)[C@H](Cc3cccc(C(=O)O)c3)NC(=O)[C@H](CCC(=O)O)NC1=O)NC(=O)[C@H](CC(C)(C)C)NC(=O)[C@H](CCC(=O)O)NC2=O` (relative stereo) [I-291, Ac-PL3-Glu-Npg-B5-Glu-3COOHF-Aib-Ala-Phe-Lys*3-PyrS2-2F3MeF-BztA-GlnR*3-Ala-NH2], the IC50 was 1000 to 5000 nM.
Turning to `CC(=O)N1CCC[C@]12CC=CCCCC1(CCCC=CCCCOC(=O)N3CC[C@@]4(C3)NC(=O)[C@H](CCCCNC(=O)CC[C@@H](C(=O)N[C@@H](CC(C)C)C(N)=O)NC(=O)[C@H](Cc3csc5ccccc35)NC(=O)[C@H](Cc3ccccc3C(F)(F)F)NC4=O)NC(=O)[C@H](Cc3ccccc3)NC(=O)[C@H](C)NC(=O)[C@H](C)NC(=O)[C@H](CN(CC(=O)O)CC(F)(F)F)NC(=O)[C@H](CC(=O)O)NC1=O)NC(=O)[C@H](CC(C)(C)C)NC(=O)[C@H](CC(=O)O)NC2=O` (relative stereo) [I-128, Ac-PL3-Asp-Npg-B5-Asp-TfeGA-Ala-Ala-Phe-Lys*3-PyrS2-2F3MeF-BztA-GlnR*3-Leu-NH2], the IC50 is 1000 to 5000 nM.
Same read-out and setting: next, `CC(=O)N1CCC[C@]12CC=CCCCC1(CCCC=CCCCOC(=O)N3CC[C@@]4(C3)NC(=O)[C@H](CCCCNC(=O)CC[C@@H](C(=O)N[C@@H](CC(C)C)C(N)=O)NC(=O)[C@H](Cc3csc5ccccc35)NC(=O)[C@H](Cc3ccccc3C(F)(F)F)NC4=O)NC(=O)[C@H](Cc3ccccc3)NC(=O)[C@H](C)NC(=O)[C@H](C)NC(=O)[C@H](Cc3cccc(C(=O)O)c3)NC(=O)[C@H](CC(=O)O)NC1=O)NC(=O)[C@H](CC1CCCCC1)NC(=O)[C@H](CC(=O)O)NC2=O` (single isomer, unassigned) [I-106, Ac-PL3-Asp-Cha-B5-Asp-3COOHF-Ala-Ala-Phe-Lys*3-PyrS2-2F3MeF-BztA-GlnR*3-Leu-NH2]: ≤ 1000 nM; `CC(=O)N1CCC[C@]12CC=CCCCC1(CCCC=CCCCOC(=O)N3CC[C@@]4(C3)NC(=O)[C@H](CCCCN(C(C)C)C(=O)CCC[C@@H](C(=O)N[C@@H](C)C(N)=O)NC(=O)[C@H](Cc3csc5ccccc35)NC(=O)[C@H](Cc3ccsc3)NC4=O)NC(=O)[C@H](Cc3ccccc3)NC(=O)[C@H](C)NC(=O)[C@H](C)NC(=O)[C@H](Cc3cccc(C(=O)O)c3)NC(=O)[C@H](CC(=O)O)NC1=O)NC(=O)[C@H](CC(C)(C)C)NC(=O)[C@H](CC(=O)O)NC2=O` (relative stereo) [I-187, Ac-PL3-Asp-Npg-B5-Asp-3COOHF-Ala-Ala-Phe-iPrLys*3-PyrS2-3Thi-BztA-hGlnR*3-Ala-NH2]: > 5000 nM.

The same assay, now with this note: read-out: DLD1 4% Abs IC50; DLD1 reporter, 4%.
For `CC(=O)N1CCC[C@]12CC=CCCCC1(CCCC=CCCCOC(=O)N3CC[C@@]4(C3)NC(=O)[C@H](Cc3cn(nn3)CCCC[C@@H](C(=O)N[C@@H](C)C(N)=O)NC(=O)[C@H](Cc3csc5ccccc35)NC(=O)[C@H](Cc3ccsc3)NC4=O)NC(=O)[C@H](Cc3ccccc3)NC(=O)[C@H](C)NC(=O)C(C)(C)NC(=O)[C@H](Cc3cccc(C(=O)O)c3)NC(=O)[C@H](CC(=O)O)NC1=O)NC(=O)[C@H](CC(C)(C)C)NC(=O)[C@H](CC(=O)O)NC2=O` (stereo partly drawn) [I-336, Ac-PL3-Asp-Npg-B5-Asp-3COOHF-Aib-Ala-Phe-sAla*3-PyrS2-3Thi-BztA-TriAzLys*3-Ala-NH2], the IC50 fell in the range of 1000 to 5000 nM.
Regarding `CC(=O)N1CCC[C@]12CC=CCCCC1(CCCC=CCCCOC(=O)N3CC[C@@]4(C3)NC(=O)[C@H](CCCCNC(=O)CC[C@@H](C(=O)N[C@@H](CCC(=O)O)C(=O)N[C@@H](C)C(N)=O)NC(=O)[C@H](Cc3csc5ccccc35)NC(=O)[C@H](Cc3ccsc3)NC4=O)NC(=O)[C@H](Cc3ccccc3)NC(=O)[C@H](C)NC(=O)C(C)(C)NC(=O)[C@H](Cc3cccc(C(=O)O)c3)NC(=O)[C@H](CC(=O)O)NC1=O)NC(=O)[C@H](CC(C)(C)C)NC(=O)[C@H](CC(=O)O)NC2=O` (relative stereo) [I-342, Ac-PL3-Asp-Npg-B5-Asp-3COOHF-Aib-Ala-Phe-Lys*3-PyrS2-3Thi-BztA-GlnR*3-Glu-Ala-NH2], the IC50 was ≤ 1000 nM.
